Reference: PMC10666288, “Unveiling the Catalytic Mechanism of a Processive Metalloaminopeptidase” (Biochemistry, 2023)

Substrate: Cc1cc(=O)oc2cc(NC(=O)[C@H](N)CC(C)C)ccc12
Assay: Steady-state activity assay with Leu-AMC (fluorescence)
Format: biochemical, Pseudomonas aeruginosa
Settings: other: Leu-AMC varied, 3 mM MnCl2, pH 8.0, 25.0 °C
Procedure: A BMG Labtech POLARstar Omega plate reader was used for activity assays and kinetic studies involving amino acids conjugated to para-nitroaniline (pNA) (Sigma) or peptides as substrates. Assays were carried out at 25 °C in clear half-area 96-well plates (Greiner Bio-One). The pNA product formed upon PaPepA-mediated bond cleavage strongly absorbs at 405 nm; therefore, initial rates were measured by monitoring the increase in absorbance at 405 nm over time. For kinetic assays investigating Leu-AMC as a substrate, a SpectraMax M2E was used. Reactions were carried out using black half-area 96-well plates with clear bottoms (Greiner Bio-One). Product formation was assessed by monitoring changes in fluorescence, with the excitation wavelength set at 341 nm and emission at 441 nm. The cutoff was 420 nm. PMT gain was set to medium, with six flashes per read. PaPepA was added at a final concentration of 100 nM to start reactions. Calibration curves of pNA concentration vs absorbance and AMC vs fluorescence were constructed, and initial rate values were divided by the slope of these calibration curves to reveal the rate of product formation over time (Table S2).
For all assays excluding pH dependence curves, buffer conditions were as follows: 100 mM HEPES, 50 mM KCl, and pH 8.0. For assays carried out under pseudo-first-order conditions, one reaction component was fixed and in excess, while the other was varied. If [metal] was varied, [Leu-pNA] was fixed at 2 mM or [Leu-AMC] was fixed at 170 μM. For assays involving variation of aa-pNA or aa-AMC, MnCl2 was added to a final concentration of 3 mM. PaPepA was added at a final concentration of 100 nM in studies containing MnCl2, and to a final concentration of 1 μM in studies containing MgCl2 as the metal cofactor. Table 1 summarizes steady-state parameters described in Scheme 1 and obtained with different substrates.

B1: PaPepA (Pseudomonas aeruginosa UCBPP-PA14) (protein)
chain: MEFLVKSVRPETLKTATLVLAVGEGRKLGASAKAVDDATGGAISAVLKRGDLAGKVGQTLLLQSLPNLKAERVLLVGAGKERELGDRQYRKLASAVLSTLKGLAGADAALALGDLAVKGRGAHAKARLLVETLADGLYVFDRYKSQKAEPLKLKKLTLLADKADSAAVEQGSKEAQAIANGMALTRDLGNLPPNVCHPTFLGEQAKGLAKEFKSLKVEVLDEKKLRELGMGSFLAVAQGSDQPPRLIILQYNGAKKDQAPHVLVGKGITFDTGGISLKPGLGMDEMKFDMCGAASVFGTFRAVLELQLPINLVGLLACAENMPSGGATRPGDIVTTMSGQTVEILNTDAEGRLVLCDALTYAERFKPQSVIDIATLTGACIVALGSNTSGLMGNNEALVRQLLKAGEFADDRAWQLPLFDEYQEQLDSPFADIANIGGPKAGTITAGCFLSRFAKKYHWAHLDIAGTAWISGGKDKGATGRPVPLLTQYLLERAK
notes: GG stays after cleavage) (N); made in house; host or cells: E. coli BL21(DE3)
Km: 16 ± 1 µM | kcat: 0.56 ± 0.01 s⁻¹ | kcat/Km: 35400 ± 3100 M⁻¹ s⁻¹
